Results: article PMC2606688, “High-fidelity correction of genomic uracil by human mismatch repair activities”

Experiments:
[1] = target: T1, MSH2 (MutSα subunit);MSH6 (MutSα subunit) (Homo sapiens;Homo sapiens, UniProt P43246;P52701 1-934;1-1360, |); assay: competition; unlabeled N1 at 50-fold molar excess against labeled N1 (EMSA); 25 mM Tris pH 7.7, 100 mM KCl, 1 mM EDTA, 1 mM DTT, 7.5% glycerol, 10 fmol labeled duplex in 30 µl, homoduplex competitor, on ice 5 min; 6% native PAGE in 0.5x; conditions: protein: recombinant;recombinant; tags: ;; copies: 1;1; label: 5'-32P on strand 1 (EDL56); blunt, 30 bp, single U•G mismatch
[2] = target: T1, MSH2 (MutSα subunit);MSH6 (MutSα …); assay: EMSA; apparent Kd; homoduplex competitor EDL365/EDL366 in reaction; no Mg2+, 1 mM EDTA; 25 mM Tris pH 7.7, 100 mM KCl, 1 mM EDTA, 1 mM DTT, 7.5% glycerol, 10 fmol labeled duplex in 30 µl, homoduplex competitor, on ice 5 min; 6% native PAGE in 0.5x; conditions: protein: recombinant;recombinant; tags: ;; copies: 1;1; label: 5'-32P on strand 1 (EDL56); blunt, 30 bp, single U•G mismatch

B1: U•G duplex (EDL56/EDL364) (dsDNA)
DNA 1: GCCGAATTTCTAGAATUGAAAGCTTGCTAG
DNA 2: CTAGCAAGCTTTCGATTCTAGAAATTCGGC
modifications: deoxyuridine at position 17 of strand 1, mispaired with G
In the case of B1, the binding signal [1] is reported as > 5 fold decrease of probe binding and the Kd [2] is reported as 0.07 µM.
